Consider seven molecules from US20250213704A1, “METHOD OF TREATING A CANCER WITH A MULTIVALENT PEPTIDE CONJUGATE” (Valitor, Inc, priority 2022, published 2025).

Data set [1] addresses T1, Human VEGF 165 (human, UniProt P15692-4 27-191, Avi tag (as printed under Tags); the tag's sequence and place are not given).
T1 construct: Bought reagent loaded on the BLI probes as ligand; VEGF165 is one isoform of it; also called BLI ligand, Avi tag, R&D Systems AVI-293-050
The data set can be described thus: BLI (Gator), Avi-tagged human VEGF 165 on the probe, conjugate as analyte, 1:1 global fit; 90.5 kDa CMC, valency 9, 48.41 percent unconjugated peptide. Here is the method:
(§1) Either one or two probes per sample (one for kinetic assay and one for ligand free control if used) were equilibrated in 250 μL BLI buffer (PBS pH 7.4, 0.2% Tween and 0.2% BSA filtered at 0.2 μm) for at minimum 10 min in a Gator Bio Max plate. Ligands were diluted to a fixed concentration of 25-100 nM based on performance in pilot reactions in BLI buffer. Analytes were prepared at the top concentration determined in pilot reactions in BLI buffer and serially diluted 1:3 two to five more times using BLI buffer (Table 3). Black flat-bottom non-coated 96 well plates (Greiner Bio One Cat #655209 or similar) were loaded column-wise with 200 μL of ligand, analyte dilutions and one column of BLI buffer for each column of ligand and analyte. One well in each column of analyte was BLI buffer to be used as a blank for reference subtraction. The sample plate was placed in the Gator on a tilted platform set to 25° C. […] Next, the kinetic reads were started using the step parameters. If a ligand-free control was conducted, when kinetic reads were complete with ligand-loaded probes, the ligand free control was run using new probes that were not loaded with the ligand. The same kinetic assay timing and same sample wells were used that were analyzed with ligand loaded probes.
(§2) When kinetic assay was complete, data was analyzed using the Gator software. […]

Data set [2] has as its target T1, Human VEGF 165. The data set can be described thus: BLI (Gator), Avi-tagged human VEGF 165 on the probe, conjugate as analyte, 1:1 global fit; 250 kDa CMC, valency 21, 44.37 percent unconjugated peptide. The protocol: as §1, §2
Data set [3] relates to SK-MEL-28 melanoma tumors. The data set can be described thus: Intratumoral pharmacokinetics, in vivo imaging of Sulfo-Cy7 tagged protein after IT injection, tumor type 1. Further details: species or system athymic nude mice. Here is the method: FIG. 2A-2C show results of intra-tumoral administration in xenografts in mice. […] The intra-tumoral half-lives were calculated using exponential decay fits of region of interest (ROI) radiant efficiency of infrared-tagged treatment peptides over 168 hours. […] The intra-tumoral half-lives were calculated using exponential decay fits of ROI radiant efficiency of infrared-tagged treatment peptides over 264 hours.
Mouse tumor models for evaluating the clearance rate of proteins from solid tumors were used to measure the intratumoral (IT) half-life of MVPs to maximize the parameters for tumor retention. Antibodies tagged using the amine-reactive Sulfo-Cy7 NHS ester (Broadpharm Cat #BP-22541) near-infrared fluorophore by the following method were used. This method was conducted under aseptic conditions. First, the dye was dissolved DMSO at 10 mg/mL concentration. Then, the protein at 5.0-10.0 mg/mL concentration was mixed with 0.1 M sodium bicarbonate at a 3:2 vol:vol ratio. Lastly, the fluorophore was added at a 1:2 protein:fluorophore molar ratio, mixed well, and incubated at room temperature for one hour on a neutator protected from the light by covering with foil. The NHS esters were quenched by adding 1.5 M Tris buffer pH 8.5 at 10% of the reaction volume and mixed on a neutator for another 10 minutes. The tagged protein was purified away from the unreacted fluorophore using a NAP-10 desalting column (illustra Cat #17-0854-01) that was equilibrated with PBS pH 7.0+0.01% Tween-20 according to the manufacturer's directions. The protein concentration and degree of Cy7 labeling was determined by the absorbance at 280 and 750 nm. […]
Tumors were established by injecting 3×10^6 SK-MEL-28 cells mixed 1:1 with Matrigel (Corning Cat #354234) in a 0.1 mL volume subcutaneously into the right flank of 8 week old athymic nude mice (Table 6). The tumor size was monitored until it reached a size of […]. […] When the study concluded, the half-life of each treatment was determined following injection using exponential decay calculations for optical in vivo imaging (Table 7).

Data set [4] deals with MDA-MB-231 breast cancer tumors. Also noted: species or system nude mice. As to conditions: mouse, in vivo.

T1 sequence (P15692 other isoform, or with tags, fused parts or gaps limits assumed): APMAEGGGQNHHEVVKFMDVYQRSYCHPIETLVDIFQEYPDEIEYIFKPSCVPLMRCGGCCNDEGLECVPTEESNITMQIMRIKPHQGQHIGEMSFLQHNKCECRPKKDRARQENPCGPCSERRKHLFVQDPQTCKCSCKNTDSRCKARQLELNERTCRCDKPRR

B1: Conjugate 114: Anti-VEGF VHH (SEQ ID NO: 8) conjugated to 90.5 kDa CMC, valency 9 (other)
VHH: MQVQLVESGGGLVQPGGSLRLSCAASGFAYSTYSMGWFRQAPGKEREAVATINSGTFRLWYTDSVKGRFTISRDNSKNTLYLQMNSLRPEDTAVYYCAARAWSPYSSTVDAGDFRYWGQGTLVTVSSAEAAAKEAAAKEAAAKAGC
modifications: C-terminal Cys thiol linked through a hydrazide-PEG2-maleimide linker to 90.5 kDa carboxymethyl cellulose
notes: Multivalent peptide-polymer conjugate; valency 9 is the mean molar ratio of peptide to polymer; also called anti-VEGF MVP
As for B1, in the data set with Human VEGF 165 [1], the Kd worked out at 0.966 nM.

B2: Conjugate 115: Anti-VEGF VHH (SEQ ID NO: 8) conjugated to 250 kDa CMC, valency 21 (other)
VHH: MQVQLVESGGGLVQPGGSLRLSCAASGFAYSTYSMGWFRQAPGKEREAVATINSGTFRLWYTDSVKGRFTISRDNSKNTLYLQMNSLRPEDTAVYYCAARAWSPYSSTVDAGDFRYWGQGTLVTVSSAEAAAKEAAAKEAAAKAGC
modifications: C-terminal Cys thiol linked through a hydrazide-PEG2-maleimide linker to 250 kDa carboxymethyl cellulose
notes: Multivalent peptide-polymer conjugate; valency 21 is the mean molar ratio of peptide to polymer; also called anti-VEGF MVP
On to B2, for which the Kd with Human VEGF 165 [2] was 0.583 nM.

B3: Conjugate 110: Anti-VEGF DARPin (SEQ ID NO: 1) conjugated to 700 kDa CMC, MP2H linker, valency 20 (conjugate)
chain: SNAGSDLDKKLLEAARAGQDDEVRILMANGADVNARDSTGWTPLHLAAPWGHPEIVEVLLKNGADVNAADFQGWTPLHLAAAVGHLEIVEVLLKYGADVNAQDKFGKTAFDISIDNGNEDLAEILQKAAGGGSGGGSC
modifications: conjugated to 700 kDa CMC via MP2H linker; aVEGF_Gly_Cys DARPin
For B3, in data set [3] (mouse, in vivo), the “IT half-life compared with unconjugated anti-VEGF DARPin and other conjugate (in words)” value is reported as “longer than that of the unconjugated anti-VEGF DARPin or the peptide conjugated to a 90 kDa CMC”; the “Intratumoral t1/2” value turned out to be 48.7 ± 24.7 h.

B4: Unconjugated: Unconjugated Sulfo-Cy7 tagged anti-VEGF DARPin (SEQ ID NO: 1), comparator for the conjugates (protein)
chain: SNAGSDLDKKLLEAARAGQDDEVRILMANGADVNARDSTGWTPLHLAAPWGHPEIVEVLLKNGADVNAADFQGWTPLHLAAAVGHLEIVEVLLKYGADVNAQDKFGKTAFDISIDNGNEDLAEILQKAAGGGSGGGSC
modifications: Sulfo-Cy7 label; aVEGF_Gly_Cys DARPin
B4: the “Intratumoral t1/2” value in data set [4] is 15.1 ± 9.8 h.

B5: Conjugate 101: Anti-VEGF DARPin (SEQ ID NO: 1) conjugated to 700 kDa CMC, MP2H linker, valency 13 (conjugate)
chain: SNAGSDLDKKLLEAARAGQDDEVRILMANGADVNARDSTGWTPLHLAAPWGHPEIVEVLLKNGADVNAADFQGWTPLHLAAAVGHLEIVEVLLKYGADVNAQDKFGKTAFDISIDNGNEDLAEILQKAAGGGSGGGSC
modifications: conjugated to 700 kDa CMC via MP2H linker; aVEGF_Gly_Cys DARPin
On to B5, for which, in data set [4], the “IT half-life compared with unconjugated anti-VEGF DARPin and other conjugate (in words)” value is “longer than that of the unconjugated anti-VEGF DARPin or the peptide conjugated to a 830 kDa hyaluronic acid (HyA)”; the “Intratumoral t1/2” value worked out at 101.2 ± 34.9 h.

B6: Conjugate 111: Anti-VEGF DARPin (SEQ ID NO: 1) conjugated to 90 kDa CMC, EMCH linker, valency 34 (conjugate)
chain: SNAGSDLDKKLLEAARAGQDDEVRILMANGADVNARDSTGWTPLHLAAPWGHPEIVEVLLKNGADVNAADFQGWTPLHLAAAVGHLEIVEVLLKYGADVNAQDKFGKTAFDISIDNGNEDLAEILQKAAGGGSGGGSC
modifications: 90 kDa CMC via EMCH linker; aVEGF_Gly_Cys DARPin
Turning to B6, the “Intratumoral t1/2” value in data set [3] (Tumor type 1 (SK-MEL-28 melanoma xenograft), 40 μL IT injection, exponential decay fit of ROI radiant efficiency over 168 hours) stood at 18.0 ± 3.4 h.

B7: Conjugate 109: Anti-VEGF DARPin (SEQ ID NO: 1) conjugated to 830 kDa HyA, MP2H linker, valency 34 (conjugate)
chain: SNAGSDLDKKLLEAARAGQDDEVRILMANGADVNARDSTGWTPLHLAAPWGHPEIVEVLLKNGADVNAADFQGWTPLHLAAAVGHLEIVEVLLKYGADVNAQDKFGKTAFDISIDNGNEDLAEILQKAAGGGSGGGSC
modifications: conjugated to 830 kDa HyA via MP2H linker; aVEGF_Gly_Cys DARPin
Consider B7, for which the “Intratumoral t1/2” value in data set [4] came to 20.5 ± 7.0 h.

The Kd is a measure of binding affinity in units of concentration.
